This is an account of results in patent US20150239933A1.

“And” between values parts separate entries of the source, which are not always exact repeats. Identical values can stand only once.

In assay [1] the target is assembled microtubules (containing ~25% of TUBB3) (porcine) (UniProt F1S6M7). Put plainly: SPR Biacore T200, 60 sec injection of 100 nM over immobilised microtubules, reference-subtracted.
Assay [2] shares this target. As to the kind of experiment: SPR Biacore T200, assembled MTs amine-coupled to CM5, gp120 3.13-100 nM as analyte, 1:1 model; one of two experiments. Background: Surface plasmon resonance follows binding to a sensor surface in real time, without labels.
Assay [3] deals with Porcine tubulin dimer (porcine). Put plainly: SPR Biacore T200, 60 sec injection of 100 nM over immobilised tubulin dimer, reference-subtracted.
Assay [4] concerns the target assembled microtubules (containing ~25% of TUBB3) (porcine) (UniProt F1S6M7). Put plainly: SPR Biacore T200, assembled MTs immobilised, 1:1 model; mean of two experiments.
Assay [5] deals with Human recombinant TUBB3 (human) (UniProt Q13509). As to the kind of experiment: SPR Biacore T200, 60 sec injection of 100 nM over immobilised tubulin β-3, reference-subtracted.
Human recombinant TUBB3 (human), sequence (Q13509 whole entry): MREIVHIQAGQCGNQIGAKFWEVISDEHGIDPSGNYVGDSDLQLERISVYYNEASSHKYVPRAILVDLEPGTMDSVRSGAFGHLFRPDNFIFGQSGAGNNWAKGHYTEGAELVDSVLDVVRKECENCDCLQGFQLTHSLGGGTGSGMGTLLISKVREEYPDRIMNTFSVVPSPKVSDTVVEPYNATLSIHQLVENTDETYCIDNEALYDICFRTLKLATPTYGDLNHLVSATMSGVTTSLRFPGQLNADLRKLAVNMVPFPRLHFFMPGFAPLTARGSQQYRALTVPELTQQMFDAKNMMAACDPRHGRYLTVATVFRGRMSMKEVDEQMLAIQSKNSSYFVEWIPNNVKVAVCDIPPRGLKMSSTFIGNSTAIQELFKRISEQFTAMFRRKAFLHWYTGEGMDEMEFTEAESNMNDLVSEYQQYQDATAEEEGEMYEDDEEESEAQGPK
Assay [6] deals with Porcine tubulin dimer (porcine). Put plainly: SPR Biacore T200, tubulin dimer amine-coupled to CM5, gp120 3.13-100 nM as analyte, 1:1 model; one of two experiments.
Assay [7] shares this target. Put plainly: SPR Biacore T200, tubulin dimer immobilised, 1:1 model; mean of two experiments.
For assay [8], the target named is Human recombinant TUBB3 (human) (UniProt Q13509). Put plainly: SPR Biacore T200, TUBB3 immobilised, 1:1 model; mean of two experiments.
Assay [9] has the same target. Put plainly: SPR Biacore T200, TUBB3 amine-coupled to CM5, gp120 3.13-100 nM as analyte, 1:1 model; one of two experiments.

A word on the Kd: it is the constant that tells how readily two partners part at equilibrium. As to gp120IIIB (from UniProt P04578 33-511), the response (4-1) RU in assay [1] was 15 RU and 23.2 RU and 19 RU. Besides, the Kd is 1.16 nM and 8.46 nM in assay [2]; 10 nM in assay [4]; 1.69 nM and 7.68 nM in assay [6]; 12.3 nM in assay [7]. Further, the response (3-1) RU in assay [3] is 14 RU and 18.6 RU and 21 RU. In addition, in assay [5], the response (2-1) RU is 35 RU and 44 RU.

For gp120ADA, the dissociation constant Kd in [2] was 5.62 nM and 1.83 nM; in assay [8] it was 10.3 nM; in assay [9], 5.48 nM and 15.2 nM; in assay [4], 12 nM; in assay [6], 5.4 nM and 1.71 nM; in assay [7], 11.2 nM.
